Where “and” joins values, the source holds several entries; their conditions need not be identical. Equal values may be shown once.
Target: human vinculin D1D2 (head domain subunits D1D2), wild type (human)
Assay: native gel or EMSA

Question: Which stoichiometry N (D1D2 per IpaA-VBS123) does the source give for “Shigella IpaA-VBS123 (C-terminal region with the three vinculin binding sites), wild type, GST cleaved (domain or fragment)” here?
Answer: 2 and 3

— article doi:10.1101/2022.11.23.517744
